Reference: patent US20220089784A1 (University of California, published 2022)
Where two headings read alike, the source gives them in different places.

How the values were obtained:
[1] = molecular target: T1, BoNT/A1 holotoxin (Hall hyper) (Clostridium botulinum, UniProt P0DPI0 2-1296)
[2] = molecular target: T2, BoNT/A2 holotoxin (FRI-H1A2) (Clostridium botulinum, UniProt Q45894 2-1296)
[3] = molecular target: BoNT/A light chain (recombinant) (Clostridium botulinum, UniProt P0DPI0 1-448); experiment: KinExA, IgG
[4] = molecular target: T1, BoNT/A1 holotoxin (Hall hyper); experiment: KinExA, IgG
[5] = molecular target: T2, BoNT/A2 holotoxin (FRI-H1A2); experiment: KinExA, IgG
[6] = molecular target: T3, BoNT/F1 (proteolytic BoNT/F) (Clostridium botulinum, UniProt A7GBG3 1-1278); experiment: yeast scFv FACS
T3 sequence: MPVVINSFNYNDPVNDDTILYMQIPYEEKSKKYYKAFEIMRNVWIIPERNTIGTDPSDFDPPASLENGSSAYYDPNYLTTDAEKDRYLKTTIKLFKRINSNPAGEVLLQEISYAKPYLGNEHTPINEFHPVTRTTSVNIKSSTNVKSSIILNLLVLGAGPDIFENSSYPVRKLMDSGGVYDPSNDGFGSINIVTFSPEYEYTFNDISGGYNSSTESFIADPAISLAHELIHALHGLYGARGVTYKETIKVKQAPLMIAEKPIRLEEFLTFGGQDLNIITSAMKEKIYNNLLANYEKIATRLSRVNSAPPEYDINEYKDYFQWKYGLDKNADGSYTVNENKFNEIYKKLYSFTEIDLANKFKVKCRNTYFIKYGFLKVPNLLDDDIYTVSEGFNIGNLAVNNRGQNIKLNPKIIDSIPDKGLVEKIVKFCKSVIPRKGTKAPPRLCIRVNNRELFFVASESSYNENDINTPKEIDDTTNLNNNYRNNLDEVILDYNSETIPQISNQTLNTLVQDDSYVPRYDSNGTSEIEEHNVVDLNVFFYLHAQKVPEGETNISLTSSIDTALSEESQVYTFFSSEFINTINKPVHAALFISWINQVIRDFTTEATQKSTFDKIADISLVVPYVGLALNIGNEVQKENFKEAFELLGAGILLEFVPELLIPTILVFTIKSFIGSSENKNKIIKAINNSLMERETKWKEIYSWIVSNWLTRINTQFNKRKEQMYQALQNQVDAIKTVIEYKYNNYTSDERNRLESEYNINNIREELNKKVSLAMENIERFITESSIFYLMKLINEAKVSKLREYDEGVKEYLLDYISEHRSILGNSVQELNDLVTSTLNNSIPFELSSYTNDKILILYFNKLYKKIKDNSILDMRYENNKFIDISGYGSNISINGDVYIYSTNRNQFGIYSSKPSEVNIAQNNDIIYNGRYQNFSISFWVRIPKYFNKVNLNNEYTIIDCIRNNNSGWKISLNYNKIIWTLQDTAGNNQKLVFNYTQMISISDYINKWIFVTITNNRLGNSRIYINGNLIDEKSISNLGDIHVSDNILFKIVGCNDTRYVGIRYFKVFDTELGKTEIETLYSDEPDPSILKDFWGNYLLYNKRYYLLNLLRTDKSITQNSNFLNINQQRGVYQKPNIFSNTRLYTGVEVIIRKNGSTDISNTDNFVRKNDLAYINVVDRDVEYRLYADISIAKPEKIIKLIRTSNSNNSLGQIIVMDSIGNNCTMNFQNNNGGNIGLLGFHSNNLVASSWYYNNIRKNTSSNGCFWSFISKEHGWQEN

BoNT/F 202F = molecular target: T4, BoNT/F 202F (Clostridium botulinum, UniProt P30996 1-1274); experiment: yeast scFv FACS
T4 sequence: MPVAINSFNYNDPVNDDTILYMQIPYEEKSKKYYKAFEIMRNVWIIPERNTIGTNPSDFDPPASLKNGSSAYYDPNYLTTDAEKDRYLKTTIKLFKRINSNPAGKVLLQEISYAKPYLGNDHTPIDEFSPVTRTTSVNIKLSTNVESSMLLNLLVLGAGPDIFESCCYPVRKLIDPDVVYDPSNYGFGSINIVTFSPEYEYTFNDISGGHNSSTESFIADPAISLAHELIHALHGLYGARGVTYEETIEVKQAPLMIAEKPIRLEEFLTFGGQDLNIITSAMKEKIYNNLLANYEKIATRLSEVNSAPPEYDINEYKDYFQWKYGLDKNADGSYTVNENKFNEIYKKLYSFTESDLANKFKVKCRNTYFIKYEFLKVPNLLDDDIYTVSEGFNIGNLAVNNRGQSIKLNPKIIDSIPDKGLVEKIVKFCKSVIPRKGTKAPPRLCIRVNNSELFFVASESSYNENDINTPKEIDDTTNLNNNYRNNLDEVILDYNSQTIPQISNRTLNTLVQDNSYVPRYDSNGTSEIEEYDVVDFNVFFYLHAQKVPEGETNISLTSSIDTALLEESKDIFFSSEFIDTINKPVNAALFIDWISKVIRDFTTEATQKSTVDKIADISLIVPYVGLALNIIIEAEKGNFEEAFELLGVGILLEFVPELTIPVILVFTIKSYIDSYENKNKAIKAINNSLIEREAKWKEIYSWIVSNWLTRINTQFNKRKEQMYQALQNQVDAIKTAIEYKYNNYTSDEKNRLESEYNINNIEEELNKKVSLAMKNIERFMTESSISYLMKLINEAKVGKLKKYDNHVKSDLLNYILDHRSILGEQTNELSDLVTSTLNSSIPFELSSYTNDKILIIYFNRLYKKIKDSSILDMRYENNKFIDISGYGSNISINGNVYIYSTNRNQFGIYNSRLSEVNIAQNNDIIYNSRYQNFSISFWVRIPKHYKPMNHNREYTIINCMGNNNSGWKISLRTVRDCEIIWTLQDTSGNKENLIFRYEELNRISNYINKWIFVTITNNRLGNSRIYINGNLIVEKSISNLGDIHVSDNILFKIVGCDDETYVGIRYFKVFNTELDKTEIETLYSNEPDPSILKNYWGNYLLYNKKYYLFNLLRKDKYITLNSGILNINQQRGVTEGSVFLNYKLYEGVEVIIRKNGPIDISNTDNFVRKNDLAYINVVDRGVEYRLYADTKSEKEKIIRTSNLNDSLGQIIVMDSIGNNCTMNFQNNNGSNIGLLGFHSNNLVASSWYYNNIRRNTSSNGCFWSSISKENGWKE

[7] = molecular target: T3, BoNT/F1 (proteolytic BoNT/F); experiment: yeast scFv FACS; remark: listed apart in the source
BoNT/F6 = molecular target: T5, BoNT/F6 (Clostridium botulinum, UniProt P30996 1-1274); experiment: yeast scFv FACS
T5 sequence: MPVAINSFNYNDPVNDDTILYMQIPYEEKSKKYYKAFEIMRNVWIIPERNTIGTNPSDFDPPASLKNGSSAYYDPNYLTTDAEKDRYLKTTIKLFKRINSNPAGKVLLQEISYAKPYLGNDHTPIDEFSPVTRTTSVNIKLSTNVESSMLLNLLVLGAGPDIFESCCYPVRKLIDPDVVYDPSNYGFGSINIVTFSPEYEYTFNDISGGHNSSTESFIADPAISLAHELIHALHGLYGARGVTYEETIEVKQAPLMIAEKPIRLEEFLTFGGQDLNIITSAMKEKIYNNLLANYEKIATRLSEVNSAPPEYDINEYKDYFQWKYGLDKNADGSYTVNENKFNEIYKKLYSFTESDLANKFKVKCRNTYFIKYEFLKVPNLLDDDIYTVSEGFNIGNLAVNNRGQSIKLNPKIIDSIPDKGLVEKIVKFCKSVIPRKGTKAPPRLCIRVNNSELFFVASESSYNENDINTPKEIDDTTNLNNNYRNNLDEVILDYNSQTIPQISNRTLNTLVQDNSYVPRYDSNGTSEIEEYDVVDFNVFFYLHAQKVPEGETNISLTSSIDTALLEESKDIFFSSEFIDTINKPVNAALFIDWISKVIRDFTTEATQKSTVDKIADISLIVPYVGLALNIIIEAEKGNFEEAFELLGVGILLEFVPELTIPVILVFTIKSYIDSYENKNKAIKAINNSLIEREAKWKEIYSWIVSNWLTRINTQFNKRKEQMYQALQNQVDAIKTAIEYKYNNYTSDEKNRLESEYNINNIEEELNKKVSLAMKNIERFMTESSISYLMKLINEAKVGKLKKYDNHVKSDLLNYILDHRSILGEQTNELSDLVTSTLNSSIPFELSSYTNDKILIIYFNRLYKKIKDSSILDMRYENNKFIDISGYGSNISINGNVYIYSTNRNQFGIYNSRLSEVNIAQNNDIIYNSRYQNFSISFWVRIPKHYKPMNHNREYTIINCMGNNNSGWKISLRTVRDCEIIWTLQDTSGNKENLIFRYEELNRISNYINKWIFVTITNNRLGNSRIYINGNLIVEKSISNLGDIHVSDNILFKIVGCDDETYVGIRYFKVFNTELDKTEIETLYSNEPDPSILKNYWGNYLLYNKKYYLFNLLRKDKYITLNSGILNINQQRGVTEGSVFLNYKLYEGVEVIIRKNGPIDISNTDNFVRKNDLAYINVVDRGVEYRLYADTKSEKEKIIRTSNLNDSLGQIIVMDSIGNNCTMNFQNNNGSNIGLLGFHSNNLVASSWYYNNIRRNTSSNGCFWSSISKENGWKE

[8] = molecular target: T3, BoNT/F1 (proteolytic BoNT/F)

T2 sequence (Q45894 2-1296): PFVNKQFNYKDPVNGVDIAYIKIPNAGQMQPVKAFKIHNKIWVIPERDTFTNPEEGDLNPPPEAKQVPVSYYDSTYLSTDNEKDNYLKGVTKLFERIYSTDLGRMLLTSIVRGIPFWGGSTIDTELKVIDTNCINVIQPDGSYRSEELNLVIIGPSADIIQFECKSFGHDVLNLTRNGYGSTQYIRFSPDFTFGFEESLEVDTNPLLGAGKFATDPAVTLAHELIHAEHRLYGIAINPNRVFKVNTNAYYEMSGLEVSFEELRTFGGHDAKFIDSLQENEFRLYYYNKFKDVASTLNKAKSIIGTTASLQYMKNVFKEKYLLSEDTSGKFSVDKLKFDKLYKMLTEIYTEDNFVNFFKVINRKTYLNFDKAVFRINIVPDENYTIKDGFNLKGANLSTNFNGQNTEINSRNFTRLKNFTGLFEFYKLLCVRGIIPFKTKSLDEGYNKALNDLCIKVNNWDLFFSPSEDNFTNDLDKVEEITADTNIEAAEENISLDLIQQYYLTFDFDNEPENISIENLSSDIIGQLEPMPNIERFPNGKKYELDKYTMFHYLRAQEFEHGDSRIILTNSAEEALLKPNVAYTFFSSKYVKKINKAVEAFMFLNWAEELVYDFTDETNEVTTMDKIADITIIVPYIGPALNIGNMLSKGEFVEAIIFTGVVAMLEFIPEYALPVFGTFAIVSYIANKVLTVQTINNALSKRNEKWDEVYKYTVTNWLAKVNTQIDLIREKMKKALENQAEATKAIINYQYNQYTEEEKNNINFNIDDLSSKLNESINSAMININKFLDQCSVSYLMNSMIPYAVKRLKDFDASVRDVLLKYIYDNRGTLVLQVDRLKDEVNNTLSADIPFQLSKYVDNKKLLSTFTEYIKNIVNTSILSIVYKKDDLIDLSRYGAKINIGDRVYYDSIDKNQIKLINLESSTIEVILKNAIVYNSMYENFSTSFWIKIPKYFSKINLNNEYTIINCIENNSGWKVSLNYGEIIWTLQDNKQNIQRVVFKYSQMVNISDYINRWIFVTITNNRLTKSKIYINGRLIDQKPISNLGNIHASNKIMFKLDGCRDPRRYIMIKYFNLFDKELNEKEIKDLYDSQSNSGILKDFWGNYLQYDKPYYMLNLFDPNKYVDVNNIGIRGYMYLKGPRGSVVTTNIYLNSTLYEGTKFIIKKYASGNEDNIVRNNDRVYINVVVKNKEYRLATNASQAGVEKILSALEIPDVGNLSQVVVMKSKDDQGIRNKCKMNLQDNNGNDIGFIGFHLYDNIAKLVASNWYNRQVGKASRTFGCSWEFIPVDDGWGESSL

B1: A9 (antibody, V domains shown)
VH: QVQLVQSGGGVVQPGRSLRLSCAASGFTFSSYGMHWVRQAPGKGLEWVSSISSSSSYIYYADSVKGRFTISRDNSKNTLYLQMNSLRAEDTAVYYCARGAVAGGSYGMDVWGQGTMVTVSS
VL: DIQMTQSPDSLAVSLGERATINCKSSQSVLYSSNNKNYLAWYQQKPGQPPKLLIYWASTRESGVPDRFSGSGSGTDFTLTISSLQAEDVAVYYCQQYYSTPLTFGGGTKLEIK
Question: Which results are given for B1?
Answer: Kd [1]: 0.0771 nM; Kd [2]: 0.223 nM

B2: 6A1M IgG (antibody, V domains shown)
VH: LQLKQSGPGLVKPSQSLSLTCSVTGYSITSGYYWYWIRQFPGNKLEWMGYISYDGSNNYNPSLKNRISITRDTSKNQFFLKLNSVTTEDTATYYCARNLGLWYFDVWGTGTPLTVSS
VL: EIVLTQSPAILSASPGEKVTMTCRASSSVRYMHWYQQKPGSSPKPWIYATSNLASGVPARFSGSGSGTSYSLTISRVEAEDAATYYCQQWSGNAPTFGGGTKLEIK
notes: IgG converted from scFv
Question: B2 was tested. Which Kd [3] did it give?
Answer: The Kd was 1.38 nM.

Question: What about the Kd [4] of the same binder?
Answer: The Kd was 9.21 pM.

Question: What about the Kd [5] of the same binder?
Answer: The Kd was 2.89 pM.

B3: ING2 IgG (antibody, V domains shown)
VH: QVQLVQSGAEVKKPGSSVKVSCKASGDTFNRNAIAWVRQAPGQGLEWMGRIIPNLRTTHYAQKFQGRVAITADKHTNTVFMELSSLRSEDTAVYYCARDPYYYSYMDVWGKGTTVTVSS
VL: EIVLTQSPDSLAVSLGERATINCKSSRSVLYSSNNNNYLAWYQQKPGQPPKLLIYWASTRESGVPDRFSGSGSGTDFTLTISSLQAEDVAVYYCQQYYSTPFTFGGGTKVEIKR
Question: How did the Kd [3] turn out when B3 was run?
Answer: Its Kd is 85.7 nM.

Question: And the Kd [4]?
Answer: The Kd was 9.57 pM.

Question: And the Kd [5]?
Answer: The Kd was 7.42 pM.

B4: 28H2 scFv (scFv, V domains shown)
VH: QVQLQESGPGLVKPSQTVSLTCTVAGYSITNGNHWWNWIRQVSGSKLEWIGYITSSGSTDSNPSLKSRISITRDTSKNQLFLQLNSVTTEDIATYYCARSSNYFFHVLDYWGQGTSVTVSS
VL: DIVLTQTPAIMSASPGEKVTMTCSASSSVSYMHWFQQKPGTSPKLWIYSTSNLASGVPARFSGSGSGTSYSLTISRMEAEDAATYYCQQRSSYPPTFGGGTRLEIK
Question: Which Kd [6] does the source give for B4 here?
Answer: Its Kd is 1.55 nM.

Question: Does B4 bind (BoNT/F 202F)?
Answer: Result: no binding

Question: And the Kd [7]?
Answer: The Kd was 1.55 nM.

Question: Does B4 bind (BoNT/F6)?
Answer: Result: no binding (tested: maximum toxin concentration tested)

B5: 4E17.2 scFv (scFv, V domains shown)
VH: EVQLVQSGGNLVQPGGSLRLSCAATGPIGSHWMTWVRQAPGQGLEWVANINLDGTEKFYVDSVKGRFTVSRDNRKSSVFLQMNNLRVDDTAVYYCARLQWGGYNGWLSPWGQGTLVTVSS
VL: DIEMTQSPPSLSASVGDRVSLTCRASEYIGTSLNWYQQKPGKAPKLLIYAASALHSGVPSRFSGSGSGTDFTLTISGLQPEDFATYYCQQANDLPLTFGGGTKLEIK
Question: Which results are given for B5?
Answer: Kd [8]: < 1 nM; Kd [6]: 0.39 nM; binding result (BoNT/F 202F): binds; Kd [7]: 0.39 nM

B6: 4E17.1 (antibody, V domains shown)
VH: EVQLVRSGGNLVQPGGSLRLSCAATGPIGSHWMTWVRQAPGQGLEWVANINLDGTEKFYVDSVKGRFTVSRDNRKSSVFLQMNNLRVDDTAVYYCARLQWGGYNGWLSPWGQGTLVTVSS
VL: DIVMTQSPSSLSASVGDRVTISCRASQSIRHYVNWYQQKPGKAPKLLIYKASSLASGAPSRFSGSGSGTDFTLTISSLQPDDFATYYCQQSYSIPLTFGGGTKVEIKR
Question: How did the Kd [1] turn out when B6 was run?
Answer: Its Kd is 0.00183 nM.

Question: And the Kd [2]?
Answer: The Kd was 0.00798 nM.

B7: 42G8 scFv (scFv, V domains shown)
VH: EVQLVPSGGNLVQPGGSLRLSCAATGPIGSHWMTWVRQAPGQGLEWVANINLDGTEKFYVDSVKGRFTVSRDNRKSSVFLQMNNLRVDDTAVYYCARLQWGGYNGWLSPWGQGTLVTVSS
VL: DIVMTQSPPSLSASVGDRVSLTCRASEYIGTSLNWYQQKPGKAPKLLIYAASALHSGVPSRFSGSGSGTDFTLTISGLQPEDFATYYCQQTNDLPLTFGGGTKLEIK
Question: Which results are given for B7?
Answer: fold increase in affinity over scFv 4E17.2 [8]: ~6 fold; Kd [6]: 0.243 nM; binding result (BoNT/F 202F): binds
